B1: Relaxin-3 (Homo sapiens), Q8WXF3 (parent)
chain: MARYMLLLLLAVWVLTGELWPGAEARAAPYGVRLCGREFIRAVIFTCGGSRWRRSDILAHEAMGDTFPDADADEDSLAGELDEAMGSSEWLALTKSPQAFYRGRPSWQGTPGVLRGSRDVLAGLSSSCCKWGCSKSEISSLC

Variants of: B1
Conditions: with rl3r2_human RXFP4, Q8TDU9
Chain of rl3r2_human RXFP4, Q8TDU9 (Q8TDU9 whole entry): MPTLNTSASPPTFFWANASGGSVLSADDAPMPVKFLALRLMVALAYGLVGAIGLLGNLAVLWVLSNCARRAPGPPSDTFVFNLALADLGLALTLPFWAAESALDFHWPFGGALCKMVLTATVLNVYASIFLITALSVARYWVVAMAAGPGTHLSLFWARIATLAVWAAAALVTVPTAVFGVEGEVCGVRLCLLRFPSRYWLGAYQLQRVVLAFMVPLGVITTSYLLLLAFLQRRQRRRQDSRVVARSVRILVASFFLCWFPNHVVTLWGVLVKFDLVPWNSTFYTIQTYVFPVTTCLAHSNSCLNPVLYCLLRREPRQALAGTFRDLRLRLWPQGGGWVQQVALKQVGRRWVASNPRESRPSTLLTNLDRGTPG

effect of a mutation on the interaction | Variant
decreasing interaction | MARYMLLLLLAVWVLTGELWPGAEARAAPYGVRLCGREFIRAVIFTCGGSEWRRSDILAHEAMGDTFPDADADEDSLAGELDEAMGSSEWLALTKSPQAFYRGRPSWQGTPGVLRGSRDVLAGLSSSCCKWGCSKSEISSLC [R51E]

Variants of: B1
Conditions: with rl3r2_human RXFP4, Q8TDU9
Remark: another data set of the same source

effect of a mutation on the interaction | Variant
increasing interaction | MARYMLLLLLAVWVLTGELWPGAEARAAPYGVRLCGREFIRAVIFTCGGSEWRRSDILAHEAMGDTFPDADADEDSLAGELDEAMGSSEWLALTKSPQAFYRGRPSWQGTPGVLRGSRDVLAGLSSSCCKWGCSKSEISSLC [R51E]

Variants of: B1
Conditions: with rl3r2_human RXFP4, Q8TDU9
Remark: another data set of the same source

effect of a mutation on the interaction | Variant
decreasing interaction | MARYMLLLLLAVWVLTGELWPGAEARAAPYGVRLCGREFIEAVIFTCGGSRWRRSDILAHEAMGDTFPDADADEDSLAGELDEAMGSSEWLALTKSPQAFYRGRPSWQGTPGVLRGSRDVLAGLSSSCCKWGCSKSEISSLC [R41E]

Variants of: B1
Conditions: with rl3r2_human RXFP4, Q8TDU9
Remark: another data set of the same source

effect of a mutation on the interaction | Variant
increasing interaction | MARYMLLLLLAVWVLTGELWPGAEARAAPYGVRLCGREFIEAVIFTCGGSRWRRSDILAHEAMGDTFPDADADEDSLAGELDEAMGSSEWLALTKSPQAFYRGRPSWQGTPGVLRGSRDVLAGLSSSCCKWGCSKSEISSLC [R41E]

Variants of: B1
Conditions: with rl3r2_human RXFP4, Q8TDU9
Remark: another data set of the same source

effect of a mutation on the interaction | Variant
decreasing interaction | MARYMLLLLLAVWVLTGELWPGAEARAAPYGVRLCGEEFIRAVIFTCGGSRWRRSDILAHEAMGDTFPDADADEDSLAGELDEAMGSSEWLALTKSPQAFYRGRPSWQGTPGVLRGSRDVLAGLSSSCCKWGCSKSEISSLC [R37E]

Variants of: B1
Conditions: with rl3r2_human RXFP4, Q8TDU9
Remark: another data set of the same source

effect of a mutation on the interaction | Variant
increasing interaction | MARYMLLLLLAVWVLTGELWPGAEARAAPYGVRLCGEEFIRAVIFTCGGSRWRRSDILAHEAMGDTFPDADADEDSLAGELDEAMGSSEWLALTKSPQAFYRGRPSWQGTPGVLRGSRDVLAGLSSSCCKWGCSKSEISSLC [R37E]

— IntAct's records for PubMed 24802387
